Data on 3 molecules can be found in paper PMC3275592, “Structural and Functional Insights into Endoglin Ligand Recognition and Binding” (PLoS ONE, 2012).

First the molecules themselves.
B1: LG-EndoEC, full length extracellular region of human endoglin (residues 22-587), low glycosylation (domain or fragment, UniProt P17813 22-587, looked up)
chain: TSLAETVHCDLQPVGPERGEVTYTTSQVSKGCVAQAPNAILEVHVLFLEFPTGPSQLELTLQASKQNGTWPREVLLVLSVNSSVFLHLQALGIPLHLAYNSSLVTFQEPPGVNTTELPSFPKTQILEWAAERGPITSAAELNDPQSILLRLGQAQGSLSFCMLEASQDMGRTLEWRPRTPALVRGCHLEGVAGHKEAHILRVLPGHSAGPRTVTVKVELSCAPGDLDAVLILQGPPYVSWLIDANHNMQIWTTGEYSFKIFPEKNIRGFKLPDTPQGLLGEARMLNASIVASFVELPLASIVSLHASSCGGRLQTSPAPIQTTPPKDTCSPELLMSLIQTKCADDAMTLVLKKELVAHLKCTITGLTFWDPSCEAEDRGDKFVLRSAYSSCGMQVSASMISNEAVVNILSSSSPQRKKVHCLNMDSLSFQLGLYLSPHFLQASNTIEPGQQSFVQVRVSPSVSEFLLQLDSCHLDLGPEGGTVELIQGRAAKGNCVSLLSPSPEGDPRFSFLLHFYTVPIPKTGTLSCTVALRPKTGSQDQEVHRTVFMRLNIISPDLSGCTSKGL
modifications: short, well defined sugars of the type Man5NAG2 (low glycosylation); putative Asn glycosylation sites Asn88, Asn102, Asn121, Asn134 and Asn307 (Asn306 in Figure 1)
notes: endoglin, human, extracellular region, residues 22-587; Dimeric and monomeric species seen on gels; also called endoglin ectodomain; source: HEK293S GnTI- suspension cells, transfected, secreted, purified (HisTrap, gel filtration); not shown: 6xHis, C-terminal, kept

The target in series [1] is Endo362, endoglin orphan domain construct with the linker region (residues 22-361 or 22-362) (human) (UniProt P17813). Briefly: SDS-PAGE under reducing and non-reducing conditions with anti-His6 western blot; 10% SDS gel, 0.5 µg protein; with or without 10 mM DTT (1 h, 65°C); boiled at 95°C for 5 min; disulfide-linked dimer. (A western blot detects proteins with antibodies after separation by electrophoresis.)

Series [2] deals with Bone morphogenetic protein 9 (BMP-9) (human) (UniProt Q9UK05). The series is described as follows: SPR; Biacore T100; BMP-9 immobilised on CM5 chip by amine coupling; analyte alone at six concentrations 12.5-400 nM; 25°C; 10 mM HEPES pH 7.4, 150 mM NaCl, 3 mM EDTA, 0.05% P20; 1:1 binding model, global fit; apparent KD; triplicates. Background: SPR reads the build-up and loss of mass on a sensor chip optically.

Series [3] concerns the molecule itself. Briefly: SDS-PAGE under reducing and non-reducing conditions with anti-His6 western blot; 10% SDS gel, 0.5 µg protein; with or without 10 mM DTT (1 h, 65°C); boiled at 95°C for 5 min; disulfide-linked dimer.
Series [4] concerns the target T1, Endo338, endoglin orphan domain construct (residues 22-337) (human, UniProt P17813 22-337, Man5NAG2 glycans (5 modelled at their attachment sites)).
T1 construct: also called Endoglin338; OD; source: HEK293S GnTI- suspension cells, transfected, secreted, purified (HisTrap, gel filtration); not shown: 6xHis, C-terminal, kept
T1 sequence (looked up): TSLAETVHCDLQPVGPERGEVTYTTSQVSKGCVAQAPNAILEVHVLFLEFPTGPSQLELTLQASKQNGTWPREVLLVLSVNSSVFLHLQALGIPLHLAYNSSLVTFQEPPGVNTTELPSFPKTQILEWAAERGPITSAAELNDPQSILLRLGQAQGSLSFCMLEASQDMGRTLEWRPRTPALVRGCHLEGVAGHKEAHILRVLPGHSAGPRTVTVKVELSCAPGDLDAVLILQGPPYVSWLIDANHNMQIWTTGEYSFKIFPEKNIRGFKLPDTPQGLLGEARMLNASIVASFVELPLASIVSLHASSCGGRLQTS
The series is described as follows: SPR; Biacore T100; BMP-9 immobilised on CM5 chip by amine coupling; analyte alone at six concentrations 12.5-400 nM; 25°C; 10 mM HEPES pH 7.4, 150 mM NaCl, 3 mM EDTA, 0.05% P20; 1:1 binding model, global fit; apparent KD; triplicates. Particulars: both partners purified.

Series [5] deals with B1. Described as above. As to conditions: both partners purified.
Series [6] deals with T2, HG-EndoEC, full length extracellular region of human endoglin (residues 22-587), high glycosylation (human, UniProt P17813 22-587, mature, branched sugars (high glycosylation); putative Asn glycosylation sites Asn88, Asn102, Asn121, Asn134 and Asn307 (Asn306 in Figure 1)).
T2 construct: endoglin, human, extracellular region, residues 22-587; EndoEC dimerized to some extent through a disulfide bond; also called endoglin ectodomain; source: HEK293 FreeStyle (HEK293F), transfected, secreted, purified (HisTrap, gel filtration)
T2 sequence (looked up): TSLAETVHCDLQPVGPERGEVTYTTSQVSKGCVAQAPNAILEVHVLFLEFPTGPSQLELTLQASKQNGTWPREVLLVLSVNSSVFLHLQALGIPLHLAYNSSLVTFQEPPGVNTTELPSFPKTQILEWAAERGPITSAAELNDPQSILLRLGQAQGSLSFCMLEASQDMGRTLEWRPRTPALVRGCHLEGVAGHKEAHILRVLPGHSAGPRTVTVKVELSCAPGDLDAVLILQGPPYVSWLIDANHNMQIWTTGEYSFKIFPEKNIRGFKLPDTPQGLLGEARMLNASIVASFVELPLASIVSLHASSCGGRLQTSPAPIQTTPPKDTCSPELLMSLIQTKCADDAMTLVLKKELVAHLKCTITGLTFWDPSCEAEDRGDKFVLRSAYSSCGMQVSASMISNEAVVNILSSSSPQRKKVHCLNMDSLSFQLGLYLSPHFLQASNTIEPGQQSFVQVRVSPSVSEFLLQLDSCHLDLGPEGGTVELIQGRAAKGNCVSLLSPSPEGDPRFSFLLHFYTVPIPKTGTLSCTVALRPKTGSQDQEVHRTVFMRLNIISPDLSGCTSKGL
The description is as above. Particulars: both partners purified.

Series [7] concerns the target B1. Briefly: SPR; Biacore T100; endoglin coinjected with a constant saturating concentration of HG-ALK1EC over immobilised BMP-9; 25°C; 10 mM HEPES pH 7.4, 150 mM NaCl, 3 mM EDTA, 0.05% P20; 1:1 binding model. Particulars: both partners purified.
Series [8] has as its target T2, HG-EndoEC, full length extracellular …. The description is as above. As to conditions: both partners purified.

“Endo362, endoglin orphan domain construct with the linker region (residues 22-361 or 22-362) (from UniProt P17813 22-361) (domain or fragment)”: the stoichiometry N in series [1] worked out at 2. Further, in series [2], the Kd was 8.96 nM, the koff amounted to 0.00108 s⁻¹ and the kon amounted to 120000 M⁻¹ s⁻¹.

For B1, the “stoichiometry N” value in series [3] came to 2.

B2: Bone morphogenetic protein 9 (BMP-9) (ligand, human, UniProt Q9UK05 320-429, looked up)
chain: SAGAGSHCQKTSLRVNFEDIGWDSWIIAPKEYEAYECKGGCFFPLADDVTPTKHAIVQTLVHLKFPTKVGKACCVPTKLSPISVLYKDDMGVPTLKYHYEGMSVAECGCR
notes: BMP-9, human, carrier-free protein from R&D Systems; Immobilised on a CM5 chip by amine coupling; also called Bone Morphogenetic Protein (BMP)-9; source: bought: R&D Systems (carrier free)
With B2, the Kd in series [4] is 276 nM; in series [5], 2.01 nM; in series [6], 9.94 nM; in series [7], 3.27 nM; in series [8] it was 14.7 nM. Further, the koff in series [4] is 0.254 s⁻¹; in series [5], 0.000891 s⁻¹; in series [6] it was 0.00207 s⁻¹; in series [7] it was 0.000925 s⁻¹; in series [8], 0.00153 s⁻¹. The kon in series [4] stood at 914000 M⁻¹ s⁻¹; in series [5], 442000 M⁻¹ s⁻¹; in series [6] it was 208000 M⁻¹ s⁻¹; in series [7], 283000 M⁻¹ s⁻¹; in series [8], 274000 M⁻¹ s⁻¹.

Usually stoichiometry N stands for the number of molecules, sites or subunits per partner or assembly. The koff is a measure of how fast the partners let go of each other. As usually defined, the kon is the second-order rate constant of association.
